Measured values as given in publication PMC5691159 (Nature Communications, 2017).

Tests used:
[1] = target: PfRh5 (Plasmodium falciparum) (UniProt Q8IFM5); conditions: cited from earlier work
[2] = target: PfRhopH3 on the P. falciparum merozoite surface (P. falciparum (endogenous in merozoites)) (UniProt Q8I395); experiment: immunostaining of cells or tissue; free merozoites incubated with 25 µM Cyclophilin B for 2 h at RT, with or without pre-incubation with rabbit anti-PfRhopH3 or anti-Rap2b antibody (1:25, 15 min); bound CypB stained and its fluorescence intensity measured by confocal microscopy (mean of ten merozoites)
Sequence of PfRhopH3 on the P. falciparum merozoite surface (P. falciparum (endogenous in merozoites)) (Q8I395 25-897): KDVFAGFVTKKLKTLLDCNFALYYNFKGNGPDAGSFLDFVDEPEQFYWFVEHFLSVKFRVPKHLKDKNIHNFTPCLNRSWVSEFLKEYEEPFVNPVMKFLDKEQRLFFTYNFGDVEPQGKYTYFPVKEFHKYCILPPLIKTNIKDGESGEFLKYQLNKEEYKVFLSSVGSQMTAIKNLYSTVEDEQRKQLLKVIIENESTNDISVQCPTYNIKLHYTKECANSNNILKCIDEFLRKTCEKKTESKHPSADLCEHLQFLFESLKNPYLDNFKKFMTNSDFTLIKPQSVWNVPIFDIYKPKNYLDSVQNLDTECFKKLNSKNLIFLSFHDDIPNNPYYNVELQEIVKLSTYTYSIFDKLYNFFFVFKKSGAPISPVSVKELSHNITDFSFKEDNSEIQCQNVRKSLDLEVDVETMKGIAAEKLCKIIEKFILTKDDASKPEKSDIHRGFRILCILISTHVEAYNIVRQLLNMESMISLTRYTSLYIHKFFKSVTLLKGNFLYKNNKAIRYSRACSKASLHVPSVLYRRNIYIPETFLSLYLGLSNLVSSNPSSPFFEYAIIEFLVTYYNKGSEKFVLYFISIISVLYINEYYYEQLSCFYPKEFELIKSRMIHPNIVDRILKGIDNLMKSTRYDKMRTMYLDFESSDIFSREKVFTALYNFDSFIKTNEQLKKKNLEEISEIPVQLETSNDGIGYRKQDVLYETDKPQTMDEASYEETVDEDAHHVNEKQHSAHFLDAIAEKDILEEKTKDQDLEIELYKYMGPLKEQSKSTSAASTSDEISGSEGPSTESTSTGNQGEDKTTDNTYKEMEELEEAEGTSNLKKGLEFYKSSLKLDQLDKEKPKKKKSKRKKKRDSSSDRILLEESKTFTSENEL

[3] = target: recombinant Cyclophilin B (Sino Biological) (human); experiment: SPR; Biacore T200, 25 °C; CypB (200 RU) amine-coupled on CM5 chip; analyte injected at 30 µl/min; running buffer 50 mM HEPES, 150 mM NaCl, 5 mM MgCl2, pH 7.4; 1:1 (Langmuir) model
PfRh5 protein = target: T1, PfRh5 protein (P. falciparum, UniProt Q8IFM5 25-526); experiment: SPR; Biacore T200, 25 °C; […]; running buffer 50 mM HEPES, 150 mM NaCl, 5 mM MgCl2, pH 7.4; 1:1 model; conditions: both partners purified
T1 sequence: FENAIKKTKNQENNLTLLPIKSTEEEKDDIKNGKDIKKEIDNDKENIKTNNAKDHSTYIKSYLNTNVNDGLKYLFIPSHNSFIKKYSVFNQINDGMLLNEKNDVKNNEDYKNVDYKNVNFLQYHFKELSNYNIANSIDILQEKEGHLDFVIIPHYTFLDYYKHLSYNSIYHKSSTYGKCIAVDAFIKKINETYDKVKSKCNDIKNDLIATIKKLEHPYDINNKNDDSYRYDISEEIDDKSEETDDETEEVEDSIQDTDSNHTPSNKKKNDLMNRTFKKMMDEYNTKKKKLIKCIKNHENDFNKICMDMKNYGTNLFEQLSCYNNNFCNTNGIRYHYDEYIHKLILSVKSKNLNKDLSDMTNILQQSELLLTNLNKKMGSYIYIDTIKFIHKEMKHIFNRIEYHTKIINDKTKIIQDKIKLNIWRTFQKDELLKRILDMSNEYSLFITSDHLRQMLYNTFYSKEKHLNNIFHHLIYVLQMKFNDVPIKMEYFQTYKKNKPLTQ

[4] = target: recombinant Cyclophilin B (Sino Biological) (human); experiment: SPR; Biacore T200, 25 °C; […]; running buffer 50 mM HEPES, 150 mM NaCl, 5 mM MgCl2, pH 7.4; 1:1 (Langmuir) model

## Basigin (from UniProt P35613)
[1]
  Kd: 1120 nM

## recombinant Cyclophilin B (Sino Biological) (natural protein)
[2]
  reduction of binding to merozoites after treatment with anti-RhopH3-C antibody: > 50%

## recombinant Basigin (BSG/CD147, Sino Biological) (from UniProt P35613 138-325) (receptor)
[3]
  Kd: 430 nM

B1: recombinant PfRhopH3-C protein (aa 617–865) with C-terminal hexa-Histidine tag (domain or fragment)
chain: QLSCFYPKEFELIKSRMIHPNIVDRILKGIDNLMKSTRYDKMRTMYLDFESSDIFSREKVFTALYNFDSFIKTNEQLKKKNLEEISEIPVQLETSNDGIGYRKQDVLYETDKPQTMDEASYEETVDEDAHHVNEKQHSAHFLDAIAEKDILEEKTKDQDLEIELYKYMGPLKEQSKSTSAASTSDEISGSEGPSTESTSTGNQGEDKTTDNTYKEMEELEEAEGTSNLKKGLEFYKSSLKLDQLDKEKP
PfRh5 protein
  Kd: 18 nM
[4]
  Kd: 160 nM
